Assays:
Test in all cases: SPR (Biacore), antibody captured on chip, FcgR extracellular domain as analyte
[1] = biological target: T1, FcgRIa (human, UniProt P12314 16-292)
T1 construct: extracellular domain; Expressed in FreeStyle293 cells and purified; used as analyte in Biacore; also called FcγRIa; FcγRI; not shown: His tag attached to the C terminus
Protocol: (§1) H240-Kn113 (SEQ ID NO: 92) resulting from introduction of Y234E and Y235N into H240-Kn072, H240-Kn115 (SEQ ID NO: 93) resulting from introduction of S239M into H240-Kn072, and H240-Kn125 (SEQ ID NO: 94) resulting from introduction of Y235Q and S239M into H240-Kn072 were prepared according to the method described in Reference Example 1.
(§2) Analysis of interaction between obj ective antibody and the FcγR was carried out using Biacore T100 (GE Healthcare), Biacore T200, Biacore A100, and Biacore 4000. HBS-EP+ (GE Healthcare) was used as the running buffer, and the measurement temperature was set to 25° C. Chips produced by immobilizing the antigen peptide by the amine coupling method to a Series S sensor Chip CM5 (GE Healthcare), chips produced by allowing preliminarily biotinylated antigen peptides to interact with and immobilize onto a Series S Sensor Chip SA (certified) (GE Healthcare), chips produced by immobilizing Protein L (ACTIGEN, BioVision) to Series S Sencor Chip CM5 (GE Healthcare), or chips produced by immobilizing Protein A/G (Thermo Scientific) to Series S Sencor Chip CM5 (GE Healthcare) were used. Antibodies of interest were captured onto these chips, and allowed to interact to each FcγR diluted with running buffer. To regenerate and repeatedly use the chip, the antibodies captured onto the chip were washed off by reacting 10 mM glycine-HCl, pH 1.5.

[2] = biological target: T2, FcgRIIa R (human, UniProt P12318 34-217)
T2 construct: extracellular domain; also called FcγRIIa R; FcγRIIa type R; not shown: His tag attached to the C terminus
T2 sequence (looked up): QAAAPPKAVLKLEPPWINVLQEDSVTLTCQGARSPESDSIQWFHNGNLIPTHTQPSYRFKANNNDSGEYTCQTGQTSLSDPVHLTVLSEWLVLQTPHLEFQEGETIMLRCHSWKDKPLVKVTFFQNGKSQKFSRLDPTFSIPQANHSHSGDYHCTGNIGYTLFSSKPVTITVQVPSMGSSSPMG
Protocol: as §1, §2

[3] = biological target: T3, FcgRIIa H (human, UniProt P12318 34-217)
T3 construct: extracellular domain; also called FcγRIIa H; FcγRIIa type H; not shown: His tag attached to the C terminus
T3 sequence (looked up): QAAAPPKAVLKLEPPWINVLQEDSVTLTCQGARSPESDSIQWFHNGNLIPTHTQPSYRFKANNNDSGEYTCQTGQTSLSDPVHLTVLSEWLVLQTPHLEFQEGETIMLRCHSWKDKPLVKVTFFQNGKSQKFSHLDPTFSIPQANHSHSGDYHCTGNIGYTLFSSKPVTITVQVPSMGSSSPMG
Protocol: as §1, §2

[4] = biological target: T4, FcgRIIb (human, UniProt P31994 43-217)
T4 construct: extracellular domain; Expressed in FreeStyle293 cells and purified; used as analyte in Biacore; also called FcγRIIb; CD32B; not shown: His tag attached to the C terminus
T4 sequence (looked up): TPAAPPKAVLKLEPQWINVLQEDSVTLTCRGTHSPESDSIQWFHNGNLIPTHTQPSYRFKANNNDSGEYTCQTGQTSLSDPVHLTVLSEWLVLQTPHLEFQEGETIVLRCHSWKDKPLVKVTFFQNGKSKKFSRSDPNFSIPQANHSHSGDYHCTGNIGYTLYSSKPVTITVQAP
Protocol: as §1, §2

[5] = biological target: T5, FcgRIIIa F (human, UniProt P08637 17-208)
T5 construct: extracellular domain; also called FcγRIIIa F; not shown: His tag attached to the C terminus
T5 sequence (P08637 17-208): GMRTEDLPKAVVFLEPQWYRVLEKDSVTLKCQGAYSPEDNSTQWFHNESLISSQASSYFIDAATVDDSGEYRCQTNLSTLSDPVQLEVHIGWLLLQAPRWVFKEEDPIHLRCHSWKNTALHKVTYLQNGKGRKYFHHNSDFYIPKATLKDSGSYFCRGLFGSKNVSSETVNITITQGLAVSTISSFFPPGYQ
Protocol: as §1, §2

[6] = biological target: T6, FcgRIIIa V (human, UniProt P08637 17-208)
T6 construct: extracellular domain; also called FcγRIIIa V; not shown: His tag attached to the C terminus
T6 sequence (P08637 17-208 F176V limits assumed): as the sequence (P08637 17-208) above, with F160V counted along it
Protocol: as §1, §2

T1 sequence (P12314 16-292): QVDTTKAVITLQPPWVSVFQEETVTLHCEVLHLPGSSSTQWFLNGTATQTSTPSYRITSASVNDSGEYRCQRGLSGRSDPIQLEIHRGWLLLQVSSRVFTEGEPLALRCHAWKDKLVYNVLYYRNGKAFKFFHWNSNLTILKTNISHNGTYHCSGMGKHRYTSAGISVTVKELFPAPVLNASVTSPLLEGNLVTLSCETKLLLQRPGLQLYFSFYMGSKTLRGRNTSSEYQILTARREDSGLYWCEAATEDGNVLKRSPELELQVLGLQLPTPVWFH

Kd [1]: 0.27 nM
Kd [2]: 130 nM
Kd [3]: 62 nM
Kd [4]: 1300 nM
Kd [5]: 1.4 nM
Kd [6]: 0.43 nM
B1: H240-Kn115/H240-Hl076/L73-k0 (antibody, human IgG1, kappa)
heavy 1: QDQLVQSGAEVKKPGASVKVSCKASGFNIKDTYIQWVRQAPGQGLEWMGRIDPLRKQTKYREKFEGRVTITADTSTNTAYMELSSLRSEDTAVYYCVRSGREFDYWGQGTLVTVSSASTKGPSVFPLAPSSKSTSGGTAALGCLVKDYFPEPVTVSWNSGALTSGVHTFPAVLQSSGLYSLSSVVTVPSSSLGTQTYICNVNHKPSNTKVDKKVEPKSCDKTHTCPPCPAPEYYWGPMVFLFPPKPKDTLMISRTPEVTCVVVDVSDEEPEVKFNWYVDGVEVHNAKTKPREEQYNATYRVVSVLTVLHQDWLNGKEYKCKVSNKALPAPIEKTISKAKGQPREPQVCTLPPSRDELTKNQVSLWCLVKGFYPSDIAVEWESNGQPENNYKTTPPVLDSDGSFFLYSKLTVDKSRWQQGNVFSCSVMHEALHNHYTQKSLSLSP
heavy 2: QDQLVQSGAEVKKPGASVKVSCKASGFNIKDTYIQWVRQAPGQGLEWMGRIDPLRKQTKYREKFEGRVTITADTSTNTAYMELSSLRSEDTAVYYCVRSGREFDYWGQGTLVTVSSASTKGPSVFPLAPSSKSTSGGTAALGCLVKDYFPEPVTVSWNSGALTSGVHTFPAVLQSSGLYSLSSVVTVPSSSLGTQTYICNVNHKPSNTKVDKKVEPKSCDKTHTCPPCPAPELLGGPSVFLFPPKPKDTLMISRTPEVTCVVVDVSHEEPEVKFNWYVDGVEVHNAKTKPREEQYNSTYRVVSVLTVLHQDWLNGKEYKCKVSNDALPMPIEETISKAKGQPREPQVYTLPPSRCELTKNQVSLSCAVKGFYPSDIAVEWESNGQPENNYKTTPPVLDSDGSFFLVSKLTVDKSRWQQGNVFSCSVMHEALHNHYTQKSLSLSP
light: DIQMTQSPSSLSASVGDRVTITCRASQDIHKYIAWYQQKPGQAPRLLIQYTSTLQPGVPSRFSGSGSGTDYTFTISSLQPEDIATYYCLQYEQLRTFGGGTKVEIKRTVAAPSVFIFPPSDEQLKSGTASVVCLLNNFYPREAKVQWKVDNALQSGNSQESVTEQDSKDSTYSLSSTLTLSKADYEKHKVYACEVTHQGLSSPVTKSFNRGEC
notes: Heterodimerized anti-EREG IgG1: Kn115 is H240-Kn072 with S239M

From patent US20180155451A1 (published 2018)
